Measured values: patent publication US20260102461A1

Biological target: TRPV1 disordered region polypeptide (UniProt Q8NER1)
Assay: modified sandwich ELISA, fluorescence grade (key: 50000 < x < 100000, Weak binding)

fluorescent signal (fluorescentsignal): 50000 to 100000
B1: S068 (designed binder)
chain: GDTRPRFLWQLKFECHFFNGTERVRLLERCIYNQEESVRFDSDVGEYRAVTELGRPDAEYWNSQKDLLEQRRAAVDTYCRHNYGVGESFTVQRRVEPKVTVYPSKTQPLQHHNLLVCSVSGFYPGSIEVRWFRNGQEEKAGVVSTGLIQNGDWTFQTLVMLETVPRSGEVYTCQVEHPSVTSPLTVEWRASGGGGSGGGGSGGGGIKEEHVIIQAEFYLNPDQSGEFMFDFDGDEIFHVDMAKKETVWRLEEFGRFASFEAQGALANIAVDKANLEIMTKRSNYTPITNVPPEVTVLTNSPVELREPNVLICFIDKFTPPVVNVTWLRNGKPVTTGVSETVFLPREDHLFRKFHYLPFLPSTEDVYDCRVEHWGLDEPLLKHWEFDAPSGGSHHHHHHLE
